Measurements: PMC11574045, “A cofactor-induced repressive type of transcription factor condensation can be induced by synthetic peptides to suppress tumorigenesis” (The EMBO Journal, 2024)

B1: NKX2-2 (protein, UniProt O95096 1-273, looked up)
Homeobox protein Nkx-2.2: MSLTNTKTGFSVKDILDLPDTNDEEGSVAEGPEEENEGPEPAKRAGPLGQGALDAVQSLPLKNPFYDSSDNPYTRWLASTEGLQYSLHGLAAGAPPQDSSSKSPEPSADESPDNDKETPGGGGDAGKKRKRRVLFSKAQTYELERRFRQQRYLSAPEREHLASLIRLTPTQVKIWFQNHRYKMKRARAEKGMEVTPLPSPRRVAVPVLVRDGKPCHALKAQDLAAATFQAGIPFSAYSAQSLQHMQYNAQYSSASTPQYPTAHPLVQAQQWTW
B2: NKX2-6 (protein, UniProt A6NCS4 1-301, looked up)
Homeobox protein Nkx-2.6: MLLSPVTSTPFSVKDILRLERERSCPAASPHPRVRKSPENFQYLRMDAEPRGSEVHNAGGGGGDRKLDGSEPPGGPCEAVLEMDAERMGEPQPGLNAASPLGGGTRVPERGVGNSGDSVRGGRSEQPKARQRRKPRVLFSQAQVLALERRFKQQRYLSAPEREHLASALQLTSTQVKIWFQNRRYKCKRQRQDKSLELAGHPLTPRRVAVPVLVRDGKPCLGPGPGAPAFPSPYSAAVSPYSCYGGYSGAPYGAGYGTCYAGAPSGPAPHTPLASAGFGHGGQNATPQGHLAATLQGVRAW
B3: NKX2-8 (protein, UniProt O15522 1-239, looked up)
Homeobox protein Nkx-2.8: MATSGRLSFTVRSLLDLPEQDAQHLPRREPEPRAPQPDPCAAWLDSERGHYPSSDESSLETSPPDSSQRPSARPASPGSDAEKRKKRRVLFSKAQTLELERRFRQQRYLSAPEREQLASLLRLTPTQVKIWFQNHRYKLKRARAPGAAESPDLAASAELHAAPGLLRRVVVPVLVRDGQPCGGGGGGEVGTAAAQEKCGAPPAAACPLPGYPAFGPGSALGLFPAYQHLASPALVSWNW
B4: ATF3 (protein, UniProt P18847 1-181, looked up)
Cyclic AMP-dependent …: MMLQHPGQVSASEVSASAIVPCLSPPGSLVFEDFANLTPFVKEELRFAIQNKHLCHRMSSALESVTVSDRPLGVSITKAEVAPEEDERKKRRRERNKIAAAKCRNKKKEKTECLQKESEKLESVNAELKAQIEELKNEKQHLIYMLNLHRPTCIVRAQNGRTPEDERNLFIQQIKEGTLQS
B5: NKX6-2 (protein, UniProt Q9C056 1-277, looked up)
Homeobox protein Nkx-6.2: MDTNRPGAFVLSSAPLAALHNMAEMKTSLFPYALQGPAGFKAPALGGLGAQLPLGTPHGISDILGRPVGAAGGGLLGGLPRLNGLASSAGVYFGPAAAVARGYPKPLAELPGRPPIFWPGVVQGAPWRDPRLAGPAPAGGVLDKDGKKKHSRPTFSGQQIFALEKTFEQTKYLAGPERARLAYSLGMTESQVKVWFQNRRTKWRKRHAVEMASAKKKQDSDAEKLKVGGSDAEDDDEYNRPLDPNSDDEKITRLLKKHKPSNLALVSPCGGGAGDAL
B6: NKX6-3 (protein, UniProt A6NJ46 1-265, looked up)
Homeobox protein Nkx-6.3: MESNLQGTFLLNNTPLAQFPEMKAPVCQYSVQNSFYKLSPPGLGPQLAAGTPHGITDILSRPVAAPNNSLLSGYPHVAGFGGLSSQGVYYSPQVGNFSKAGNEYPTRTRNCWADTGQDWRGGRQCSNTPDPLSDSIHKKKHTRPTFTGHQIFALEKTFEQTKYLAGPERARLAYSLGMTESQVKVWFQNRRTKWRKKSALEPSSSTPRAPGGAGAGAGGDRAPSENEDDEYNKPLDPDSDDEKIRLLLRKHRAAFSVLSLGAHSV
B7: NPM2 (protein, UniProt Q86SE8 1-214, looked up)
Nucleoplasmin-2: MNLSSASSTEEKAVTTVLWGCELSQERRTWTFRPQLEGKQSCRLLLHTICLGEKAKEEMHRVEILPPANQEDKKMQPVTIASLQASVLPMVSMVGVQLSPPVTFQLRAGSGPVFLSGQERYEASDLTWEEEEEEEGEEEEEEEEDDEDEDADISLEEQSPVKQVKRLVPQKQASVAKKKKLEKEEEEIRASVRDKSPVKKAKATARAKKPGFKK
B8: NR0B1/DAX1 (protein, UniProt P51843 1-470, looked up)
Nuclear receptor subfamily 0 …: MAGENHQWQGSILYNMLMSAKQTRAAPEAPETRLVDQCWGCSCGDEPGVGREGLLGGRNVALLYRCCFCGKDHPRQGSILYSMLTSAKQTYAAPKAPEATLGPCWGCSCGSDPGVGRAGLPGGRPVALLYRCCFCGEDHPRQGSILYSLLTSSKQTHVAPAAPEARPGGAWWDRSYFAQRPGGKEALPGGRATALLYRCCFCGEDHPQQGSTLYCVPTSTNQAQAAPEERPRAPWWDTSSGALRPVALKSPQVVCEAASAGLLKTLRFVKYLPCFQVLPLDQQLVLVRNCWASLLMLELAQDRLQFETVEVSEPSMLQKILTTRRRETGGNEPLPVPTLQHHLAPPAEARKVPSASQVQAIKCFLSKCWSLNISTKEYAYLKGTVLFNPDVPGLQCVKYIQGLQWGTQQILSEHTRMTHQGPHDRFIELNSTLFLLRFINANVIAELFFRPIIGTVSMDDMMLEMLCTKI
B9: NR0B2/SHP (protein, UniProt Q15466 1-257, looked up)
Nuclear receptor subfamily 0 …: MSTSQPGACPCQGAASRPAILYALLSSSLKAVPRPRSRCLCRQHRPVQLCAPHRTCREALDVLAKTVAFLRNLPSFWQLPPQDQRRLLQGCWGPLFLLGLAQDAVTFEVAEAPVPSILKKILLEEPSSSGGSGQLPDRPQPSLAAVQWLQCCLESFWSLELSPKEYACLKGTILFNPDVPGLQAASHIGHLQQEAHWVLCEVLEPWCPAAQGRLTRVLLTASTLKSIPTSLLGDLFFRPIIGDVDIAGLLGDMLLLR
B10: NR1F3/RORC (protein, UniProt P51449 1-518, looked up)
Nuclear receptor ROR-gamma: MDRAPQRQHRASRELLAAKKTHTSQIEVIPCKICGDKSSGIHYGVITCEGCKGFFRRSQRCNAAYSCTRQQNCPIDRTSRNRCQHCRLQKCLALGMSRDAVKFGRMSKKQRDSLHAEVQKQLQQRQQQQQEPVVKTPPAGAQGADTLTYTLGLPDGQLPLGSSPDLPEASACPPGLLKASGSGPSYSNNLAKAGLNGASCHLEYSPERGKAEGRESFYSTGSQLTPDRCGLRFEEHRHPGLGELGQGPDSYGSPSFRSTPEAPYASLTEIEHLVQSVCKSYRETCQLRLEDLLRQRSNIFSREEVTGYQRKSMWEMWERCAHHLTEAIQYVVEFAKRLSGFMELCQNDQIVLLKAGAMEVVLVRMCRAYNADNRTVFFEGKYGGMELFRALGCSELISSIFDFSHSLSALHFSEDEIALYTALVLINAHRPGLQEKRKVEQLQYNLELAFHHHLCKTHRQSILAKLPPKGKLRSLCSQHVERLQIFQHLHPIVVQAAFPPLYKELFSTETESPVGLSK
B11: NR1H2/LXRB (protein, UniProt P55055 1-460, looked up)
Oxysterols receptor LXR-beta: MSSPTTSSLDTPLPGNGPPQPGAPSSSPTVKEEGPEPWPGGPDPDVPGTDEASSACSTDWVIPDPEEEPERKRKKGPAPKMLGHELCRVCGDKASGFHYNVLSCEGCKGFFRRSVVRGGARRYACRGGGTCQMDAFMRRKCQQCRLRKCKEAGMREQCVLSEEQIRKKKIRKQQQESQSQSQSPVGPQGSSSSASGPGASPGGSEAGSQGSGEGEGVQLTAAQELMIQQLVAAQLQCNKRSFSDQPKVTPWPLGADPQSRDARQQRFAHFTELAIISVQEIVDFAKQVPGFLQLGREDQIALLKASTIEIMLLETARRYNHETECITFLKDFTYSKDDFHRAGLQVEFINPIFEFSRAMRRLGLDDAEYALLIAINIFSADRPNVQEPGRVEALQQPYVEALLSYTRIKRPQDQLRFPRMLMKLVSLRTLSSVHSEQVFALRLQDKKLPPLLSEIWDVHE
B12: NR1I3/CAR1 (protein, UniProt Q14994 1-352, looked up)
Nuclear receptor subfamily 1 …: MASREDELRNCVVCGDQATGYHFNALTCEGCKGFFRRTVSKSIGPTCPFAGSCEVSKTQRRHCPACRLQKCLDAGMRKDMILSAEALALRRAKQAQRRAQQTPVQLSKEQEELIRTLLGAHTRHMGTMFEQFVQFRPPAHLFIHHQPLPTLAPVLPLVTHFADINTFMVLQVIKFTKDLPVFRSLPIEDQISLLKGAAVEICHIVLNTTFCLQTQNFLCGPLRYTIEDGARVSPTVGFQVEFLELLFHFHGTLRKLQLQEPEYVLLAAMALFSPDRPGVTQRDEIDQLQEEMALTLQSYIKGQQRRPRDRFLYAKLLGLLAELRSINEAYGYQIQHIQGLSAMMPLLQEICS

The molecules below were run on HEK293FT cells transfected with TF library (assay: Screening of TF condensates based on fluorescent puncta). Details: Figure 1B numerical data; TF library screen, one value per transcriptional factor.
Assay type: cell-based
Procedure, shortened: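 HEK293FT, PEI transfection of TF library, 60 h; ±glucose 12 h; 4% PFA fix, 0.05% Triton X-100 permeabilization, 5% BSA block; anti-Flag/anti-GAL4 overnight at 4 °C, Alexa 488 secondary 1 h; high-content imaging, 50 fields/well.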

Point of comparison: B7, “Z score of condensed fraction” value 1.0628. Against it:
- B1 — lower, -0.1567
- B2 — lower, -0.7176
- B3 — lower, -0.6353
- B4 — lower, -0.2156
- B5 — lower, -0.6325
- B6 — lower, -0.571
- B8 — lower, -0.574
- B9 — lower, -0.8477
- B10 — lower, 0.1658
- B11 — lower, 0.2806
- B12 — lower, -0.6844
